± gives the uncertainty stated by the source.
Experiment: self-splicing fitness, log relative to wild type (ln ratio); higher = more splicing; Tetrahymena group I intron in knt gene, E. coli kanamycin selection, DiMSum; sequences stand for … in CUCUCU…GGAGGGAAAAGUUAUCAGGCAUGCACCUGGUAGCUAGUCUUUAAACCAAUAGAUUGCAUCGGUUUAAAAGGCAAGACCGUCAAAUUGCGGGAAAGGGGUCAACAGCCGUUCAGUACCAAGUCUCAGGGGAAACUUUGAGAUGGCCUUGCAAAGGGUAUGGUAAUAAGCUGACGGACAUGGUCCUAACCACGCAGCCAAGUCCUAAGUCAACAGAUCUUCUGUUGAUAUGGAUGCAGUUCACAGACUAAAUGUCGGUCGGGGAAGAUGUAUUCUUCUCAUAAGAUAUAGUCGGACCUCUCCUUAAUGGGAGCUAGCGGAUGAAGUGAUGCAACACUGGAGCCGCUGGGAACUAAUUUGUAUGCGAAAGUAUAUUGAUUAGUUUUGGAGUACUCGUGGUCG
Outline: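 Fitness was computed with DiMSum as the error-weighted combination of replicate fold changes, kanamycin versus none, each normalised to wild type. The library randomised all eight intron nucleotides of the P1ex region, with the intron placed in the knt kanamycin-resistance gene on pET-22b(+) in E. coli BL21(DE3). Six replicate transformations were grown overnight at 37°C or 30°C on LB agar with or without 25 μg/mL kanamycin, plus 100 μg/mL carbenicillin, 50 μM IPTG and 0.2% rhamnose. Pooled colonies were amplicon-sequenced on an Illumina HiSeq 2500.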

Row | Sequence | self-splicing fitness (ln) (30 °C) | self-splicing fitness (ln) (37 °C)
1 | CAAUAGCAAUAUUACGCGGC | -3.91 ± 0.37 | –
2 | UCACAGCAAUAUUACGUUGU | -4.29 ± 0.18 | -2.14 ± 0.12
3 | GUUAAGCAAUAUUACGCACC | -2.89 ± 0.3 | -2.13 ± 0.32
4 | GUUCAGCAAUAUUACGCCAA | -1.32 ± 0.21 | -1.72 ± 0.18
5 | GAACAGCAAUAUUACGAUAC | -0.825 ± 0.065 | -0.127 ± 0.087
6 | UCACAGCAAUAUUACGGAUU | -4.45 ± 0.13 | -2.38 ± 0.096
7 | CGACAGCAAUAUUACGAAAC | -3.49 ± 0.27 | -2.39 ± 0.25
8 | AUCAAGCAAUAUUACGCCAG | -3.08 ± 0.2 | -1.32 ± 0.23
9 | UAUAAGCAAUAUUACGUGAC | -2.15 ± 0.19 | -0.695 ± 0.3
10 | ACUUAGCAAUAUUACGACCU | -0.101 ± 0.16 | -0.219 ± 0.2
11 | UUUAAGCAAUAUUACGAUUU | -1.92 ± 0.16 | -0.754 ± 0.13
12 | GACAAGCAAUAUUACGUUCG | -2.99 ± 0.19 | -1.61 ± 0.12
13 | AUGUAGCAAUAUUACGUAGA | -3.11 ± 0.32 | -2.65 ± 0.29
14 | CUAUAGCAAUAUUACGGCAU | -3.11 ± 0.25 | -2.37 ± 0.24
15 | ACUUAGCAAUAUUACGGAAU | -2.99 ± 0.17 | -2.13 ± 0.2
16 | AUUAAGCAAUAUUACGCGUU | -1.78 ± 0.11 | -0.33 ± 0.12
17 | AAAAAGCAAUAUUACGCCAC | – | -2.91 ± 0.47
18 | AUUGAGCAAUAUUACGGGGC | -3.06 ± 0.26 | -3.09 ± 0.3
19 | UCUCAGCAAUAUUACGUAAC | -2.74 ± 0.21 | -2.2 ± 0.28
20 | CGUAAGCAAUAUUACGAGGU | -3.63 ± 0.46 | -1.71 ± 0.29

Row | Sequence | self-splicing fitness (ln) (30 °C) | self-splicing fitness (ln) (37 °C)
21 | AACCAGCAAUAUUACGCGCA | -0.111 ± 0.068 | -0.00763 ± 0.089
22 | CUAUAGCAAUAUUACGCAAG | -3.11 ± 0.2 | -2.22 ± 0.18
23 | CAUGAGCAAUAUUACGCUUA | -3.77 ± 0.43 | -2.19 ± 0.25
24 | ACUAAGCAAUAUUACGUUGC | -3.69 ± 0.27 | -2.77 ± 0.22
25 | ACUCAGCAAUAUUACGUUCU | -0.967 ± 0.079 | -0.242 ± 0.074
26 | GUUAAGCAAUAUUACGGAAU | -2.75 ± 0.14 | -1.39 ± 0.13
27 | UUAUAGCAAUAUUACGCUUG | -1.46 ± 0.19 | -0.162 ± 0.22
28 | UGCCAGCAAUAUUACGUGUA | -1.26 ± 0.058 | -0.551 ± 0.059
29 | GUGUAGCAAUAUUACGUUCU | -0.842 ± 0.09 | 0.00858 ± 0.11
30 | CUCCAGCAAUAUUACGAUCU | -4.21 ± 0.27 | -1.16 ± 0.12
31 | CAGGAGCAAUAUUACGGAGA | -2.81 ± 0.28 | -2.34 ± 0.37
32 | CGAGAGCAAUAUUACGAGUG | -3.53 ± 0.26 | -0.803 ± 0.14
33 | GUAAAGCAAUAUUACGCUGC | -2.97 ± 0.24 | -1.97 ± 0.28
34 | UUCCAGCAAUAUUACGACAA | -0.945 ± 0.13 | 0.128 ± 0.16
35 | UGGGAGCAAUAUUACGUAAC | -1.63 ± 0.41 | –
36 | GCCGAGCAAUAUUACGCUUG | -3.71 ± 0.23 | -2.78 ± 0.24
37 | AGGUAGCAAUAUUACGCCGU | -1.24 ± 0.019 | -0.852 ± 0.035
38 | ACCGAGCAAUAUUACGGCAC | -2.07 ± 0.14 | -1.76 ± 0.27
39 | GACGAGCAAUAUUACGAGAU | -2.23 ± 0.3 | –
